Laboratory results reported in the DeepSol protein solubility set.

assay: soluble on expression in E. coli; label from the status in PepcDB or PDB records

| Sequence | soluble on expression in E. coli |
| --- | --- |
| MKSFIKIHKQDNVLLALRYIQKGERLHAYGVSIEVKDDIKRGHKIALQSIKENDSIVKYGFPIGHASQDISIGEHIHVHNTKTNLSDIQLYSYTPRFDENPYSNENRTFKGFRRENGDAGVRNELWIVPTVGCVNGIAEKMLQRFVRETGDIAPFDNVLVLKHQYGCSQLGDDHENTKQILLNAIRHPNAGGVLVLGLGCENNELARMKEALQDVNLKRVKFLESQSVTDEMEAGVALLKEIHEAAKGDKREDIPLSELKIGLKCGGSDGFSGITANPLLGRFSDYLIAQGGSTVLTEVPEMFGAETILMQRAANEEVFHKIVDLINDFKQYFIKHDQPVYENPSPGNKAGGISTLEDKSLGCTQKAGISPVTDVLKYGEVLKTKGLTLLSAPGNDLIASSALAAAGCQIVLFTTGRGTPFGTFVPTVKVATNTELYEAKPHWIDFNAGLLAEDDVHEEYVLREFIHYMIEVASGQLVNHEKNDFKELAIFKSGVTL | not soluble |
| MKSLSYKRIYKSQEYLATLGTIEYRSLFGSYSLTVDDTVFAMVSDGELYLRACEQSAQYCVKHPPVWLTYKKCGRSVTLNYYRVDESLWRNQLKLVRLSKYSLDAALKEKSTRNTRERLKDLPNMSFHLEAILGEVGRLAP | not soluble |
| MKSMSEYLNLLKEAIQNVVDGGWHETKRKGNTGIGKTFEDLLEKEEDNLDAPDFHDIEIKTHETAAKSLLTLFTKSPTNPRGANTMLRNRYGKKDEYGNNILHQTVSGNRKTNSNSYNYDFKIDIDWESQVVRLEVFDKQDIMIDNSVYWSFDSLQNQLDKKLKYIAVISAESKIENEKKYYKYNSANLFTDLTVQSLCRGIENGDIKVDIRIGAYHSGKKKGKTHDHGTAFRINMEKLLEYGEVKVIV | soluble |
| MKSMTGFGKKTIQNENYQLDIEVKSVNQRFLDIQLRMPKELNAYELVIRQVIKRTLKRGRVEVYVNLQKIGNNQKEVRVQWDLIDQLLTSVDQHLKEKYPEATFDAGDTVNHLLKQNDFVEIVEAEIVDQTFEPFLVQAFEAAIASLDQSRVQEGTQIKQVLLDYVAVLTQSIQELQAFVGVFEQEYRQRFEAKLNEWLGSQVDETRLLTEMAILLEKGDIHEELDRLDIHIDKLHQLLDETEPVGRELDFLIQEMNREVNTIGSKSSPIEIKNSVVQMKTTLEKIREQIQNVE | not soluble |
| MKSTDNSKPVPFFRGKLKFFQPKEHKISVDLVLFLSKIKPPKRNYRIIDLGAGFGFLSITLAKKYGVKVVAFEYDERMVKLLRKNVKLNGVEHLVEVVEGDIKEIEKHLSRGSFNLVVSNPPFYPINYSPNPEPYHFEVYATLKDFVRASSYLLKDGGELYLLSPCFRLYELTEYLSNFNLPLRKLSLIYPTPLKRARLAITVSVKNVKGQLECDKPLIINKENGEYTEEVKQLLENFL | soluble |
| MKSVKNSWNSSIKDGEYQRKESQFRNWITTDGSAGITGRGGFQAEAGRYHLYVSLACPWAHRTLIFRQLKGLEDLITVSVVHPDMHENGWSFKHDEESAKLYGTTGDNLYDGKFISEKYLAQDPDYSGVNSVPVLWDKKDKVIVNNESSEIIRMFNSAFNDITGNTLDFYPEHLREKIDHENELVYHKINNGVYKTGFATTQEAYDKNVNELFAALEQIDEKLSKQRYLTGDEITEADWRLWATLVRFDSVYHTHFKCNLKLIKEFSNIYNYMLELFQVPNVAKTVNEAHIKRHYYASHVAINPYGIVPIAHQQDWTAQHNRDKQFS | not soluble |
| MKSVQDALYNWLTIHIVAKARPHDAAARDTASFFRAILENDFGVTAVDAVKDETNGQYIVEYVRGGETRAACFPLELAEAMWRQIEAEPEKYG | not soluble |
| MKSYIVIGAGILGASTAYHLAKEGASVMIIDRGDKGQATDAAAGIVCPWLSQRRNQKWYRLAKGGAKFYPSLIEELESYGETETGYARVGALWLHTDEQKLEQMEERALKRREDAPEMGEIVRLHPQEAKELFPPLVGEHHALYVSGAARVNGRAVRDALMNASQKRGAAYIRGNARLLFEGSRIIGVEADGTKYAAEAVIVTAGAWAGELLEPLGIKLLVTPQKGQLIHLEHPECDTSHWPVVMPPNNQYMLAFPGSRIVIGTTHEDEAGMDIRPTAGGMHELLDKALAVAPGLSTWTYIETRVGFRPRTPGFLPIFGPLPGFSGVYIANGLGSSGLTVGPYLGKELAKLVIGLPTELDPSDYDVASAVAPIVQ | not soluble |
| MKTASYAQSFSRAAKEYDAYAYLQQTVARELASWIEGMECESILDLGCGTGALWRALRFKPRFFTGVDLSMEMLDLHPQDPAIRLIQSDFNHPSLYEHSYDLIAASSSLQWSRDLAQSFDLIAKSAQNVAFAIFTSESLWEIHDYVDSHSPIPSKERIESLLKERFAGEFELKRYPLSFPSRVAMLSYLKGSGISGGRRLGFAQSKKLIQSAPFERLTFEVLFFVGKPLKADQK | not soluble |
| MKTAYIAKQRQISFVKSHFSRQLEERLGLIEVQAPILSRVGDGTQDNLSGAEKAVQVKVKALPDAQFEVVHSLAKWKRQTLGQHDFSAGEGLYTHMKALRPDEDRLSPLHSVYVDQWDWERVMGDGERQFSTLKSTVEAIWAGIKATEAAVSEEFGLAPFLPDQIHFVHSQELLSRYPDLDAKGRERAIAKDLGAVFLVGIGGKLSDGHRHDVRAPDYDDWSTPSELGHAGLNGDILVWNPVLEDAFELSSMGIRVDADTLKHQLALTGDEDRLELEWHQALLRGEMPQTIGGGIGQSRLTMLLLQLPHIGQVQAGVWPAAVRESVPSLL | soluble |
| MKTFFIVASLLAVGLVLAEDSEEKSEVKDVKPWKKLDFKKREPEFLKEMSQDAKTAYFGIKFNPELTKAEKTRMLKEWADQYDVEDDMQKFLDAKKADCDKKKQERKDNYERLGDLIEKADEILDDQENTWNGANEKLEALVKDENRDVMKAFQSFYPFVGRDSEGPRHGHGHGHGHRFHHGRRFGRNIGGGAAPRYNGGGIGSGISIGENPRHHNGGIGSGISMGERHRDGESYDAYGNSKHHHKKHHGF | not soluble |
| MKTFIWNSNYETGVAKVDDQHQCLVEIINEYSHLLANNTTTETDIELTLNKLIDYTKFHFKDEEQLMYSVGLDTRHITHHEKLHRDILDEISTLLSDQVTDKLSIARYILDLIIHWLVYHILGTDMNMAKLEHHHHHH | not soluble |
| MKTGKELKPGTVIRLENDPWLVQKAEFTKSGRNSAIMKTKLKNLLTGYKTEIVYSADDKLDDVILDRKEATLSFISGDTYTFMDTTDYTMYELNAEDIESVLPFVEEGMTDVCEAVFFDERLVSVELPTTIVRQVDYTEGSARGDTSGKVMKPAKLKNGTELSVADFIEIGDMIEIDTREGGSYKGRAKLEHHHHHH | not soluble |
| MKTHYRTIVLSDIHLGTSSSKAKEVSNFLKNHTCDTLLLNGDIIDGWQLQKYGKWKKSHTRFFRRVIKMTEQNKTKVYYLRGNHDDFLDTILPLSFGNIHIDREYIHQGATGKMYYVVHGDVFDTVTSQLKWIAKLGDVGYTFLLWLNKHYNNYRVKRGLPYYSLSQAVKQKVKTAVSYISDFEMQLADLARSRKCDGVICGHIHQPAIKEYNGIEYLNSGDWVETLSALVETIHGEWKLIYYNQAFDEDRDSTEDADDPLFVFENMARFSKDVTIYKPRYSAFNGMNPADNLATNNQ | not soluble |
| MKTLLTSATLLVTTLSTPLMAKEADIQSLVNAAQKEGQVYSVGMPGSWANWKDTWNDLNKLYGLKHQDTDMSSAQEIAKFAAEKNNATADIGDIGFAFARVAVKKGVTQAYKPTTWDSIPDWAKDKDGHWALAYTGTISFISNNKLVKNPPTSWDDLLEGNYKVSVGDVGVAAQANNAVLAAAFAKGGDESNLKPAIKFFAELAKQGRLSYTDPGLANLEKGEVEVALLWDFNALNYRDKLGRDRFSVNIPQDGSVISGYTTIINKFAKNPNSAKLAREYIFSDQGQINLAEGYARPIRSDVVLPQSIQDKLIPNDQYTNVQPVSDFKAWEKSARKLPRQWQENVLINQQ | not soluble |
| MKTLNLLAPVSQLLKPLRRQSSSRVNALLINVPRVQLSKGKNKYLLMMIHMHGLTRFGRTIVRGSASKDHEEIFEEIQKEMDKIGICAKCLGGGFISNKEDKKVMKIYGCCKTFGEAPHGRTKDILLSWTKFQHYNIILPKKNLNAYQLEHHHHHH | not soluble |
| MKTNSEELTVFVQVVESGSFSRAAEQLAMANSAVSRIVKRLEEKLGVNLLNRTTRQLSLTEEGAQYFRRAQRILQEMAAAETEMLAVHEIPQGVLSVDSAMPMVLHLLAPLAAKFNERYPHIRLSLVSSEGYINLIERKVDIALRAGELDDSGLRARHLFDSRFRVIASPEYLAKHGTPQSTEELAGHQCLGFTEPGSLNTWAVLDAQGNPYKISPHFTASSGEILRSLCLSGCGIVCLSDFLVDNDIAEGKLIPLLAEQTSDKTHPFNAVYYSDKAVNLRLRVFLDFLVEELGNNLCGKHHHHHH | soluble |
| MKTPAILLLLFLFMMSLAQSDEEQSGKEPPEKDDVLVILAEDNSTLLNNNQTMYDPSSEEKESDKPKFNLLETYLPLFIFVLDLPTEDRETLKAYVKDKTYEKLKYVIDSKVKMNRNEKNVLGRINESLVQSIDNLEHFDEITVDVVNGYHNASVYNAIRSVWLKQLRPFLPLIDQMAIQQKSSETEKMSIWARLWENLSVWMYGKKKLNECYAMEPKCVRHALELLNFEQRIDLDLAAYENKFDSVDGIIRERLGENRKSSELDEWLHRNRPPKALQAILDERSDIEEEALQRLRDNGVLSSLKHYYKAVIESRSHEEQEDIRHFFDIMNDTFARCFDPLRGQYHDF | not soluble |
| MKTPTRVSFEKKIHTPPSGDRDAERSPPKKFLRGLSGKVFRKTPEFKKQQMPTFGYIEESQFTPNLGLMMSKRGNIPKPLNLSKPISPPPSLKKTAGSVASGFSKTGQLSALQSPVNITSSNKYNIKATNLTTSLLRESISDSTTMCDTLSDINLTVMDEDYRIDGDSYYEEDSPTFMISLERNIKKCNSQFSPKRYIGEKCLICEESISSTFTGEKVVESTCSHTSHYNCYLMLFETLYFQGKFPECKICGEVSKPKDKDIVPEMVSKLLTGAGAHDDGPSSNMQQQWIDLKTARSFTGEFPQFTPQEQLIRTADISCDGFRTPRLSNSNQFEAVSYLDSPFLNSPFVNKMATTDPFDLSDDEKLDCDDEIDESAAEVWFSKTGGEHVMVSVKFQEMRTSDDLGVLQDVNHVDHEELEEREKEWKKKIDQYIETNVDKDSEFGSLILFDKLMYSDDGEQWVDNNLVILFSKFLVLFDFEEMKILGKIPRDQFYQVIKFNEDVLLCSLKSTNIPEIYLRFNENCEKWLLPKWKYCLENSSLETLPLSEIVSTVKELSHVNIIGALGAPPDVISAQSHDSRLPWKRLHSDTPLKLIVCLNLSHADGELYRKRVLKSVHQILDGLNTDDLLGIVVVGRDGSGVVGPFGTFIGMINKNWDGWTTFLDNLEVVNPNVFRDEKQQYKVTLQTCERLASTSAYVDTDDHIATGYAKQILVLNGSDVVDIEHDQKLKKAFDQLSYHWRYEISQRRMTPLNASIKQFLEELHTKRYLDVTLRLPQATFEQVYLGDMAAGEQKTRLIMDEHPHSSLIEIEYFDLVKQQRIHQTLEVPNL | not soluble |
| MKTSSYLLKAGVDYPTNWDEFVDWFHDEQSCTSYLYALRWPNGFICPSCSSHQSPYQLSNGKLKCHACRFQCSVTSSTLFDKTRTPMKSWFAAVWFITNQKNGVSALGVQRLLGLGSYQTAWSLMHKLRYAMVDPERDKLSGIVEVDETLIGGVIPKSSIKNQQGKRKAIVLVAVELLSPSGFGRIRLRQVESATKEHIHQFIQDVIEPGSTICSDGSQAYKQIDKKGYKHNRMVHLGSSVPAHETMAGVHRVSSLCKRWLLGTYQGAVKAKQLDYYLDEFTFRFNRRKSDSRGLLFYRLLEQAVRLEHHHHHH | soluble |
